Data reported in the supplement of paper PMC9112550, “Optimization of the antimicrobial peptide Bac7 by deep mutational scanning” (BMC Biology, 2022).

These sequences were tested on Escherichia coli TOP10 (assay: shrunken log2 fold change of peptide-encoding DNA abundance (4.5 h post-induction vs induction); higher = less antimicrobial activity (less host growth inhibition)). Conditions: time post-induction: 4.5 h; library: site-saturation at positions 5, 18, 19, 20.
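Also: peptides expressed intracellularly from a pBAD plasmid library in pooled LB shake-flask culture, induced with 0.3% L-arabinose, DNA abundance read by NGS, three biological replicates, DESeq2 with apeglm shrinkage.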

| Sequence | shrunken log2 fold change |
| --- | --- |
| RRIRERPPRLPRPRPRPCGTPRP | -0.00758 |
| RRIRLRPPRLPRPRPRPGRGPRP | 0.696 |
| RRIRKRPPRLPRPRPRPAEGPRP | 0.305 |
| RRIRIRPPRLPRPRPRPHQMPRP | 0.0234 |
| RRIRQRPPRLPRPRPRPTSAPRP | 0.257 |
| RRIRPRPPRLPRPRPRPQNEPRP | -0.183 |
| RRIRRRPPRLPRPRPRPWFCPRP | -0.101 |
| RRIRTRPPRLPRPRPRPCSWPRP | 0.0291 |
| RRIRIRPPRLPRPRPRPGDSPRP | 0.0577 |
| RRIRVRPPRLPRPRPRPADDPRP | 0.203 |
| RRIRTRPPRLPRPRPRPHWQPRP | -0.0496 |
| RRIRKRPPRLPRPRPRPVNDPRP | 0.00208 |
| RRIRDRPPRLPRPRPRPHKIPRP | -0.524 |
| RRIRGRPPRLPRPRPRPMWQPRP | 0.418 |
| RRIRHRPPRLPRPRPRPTQQPRP | 0.0495 |
| RRIRKRPPRLPRPRPRPACDPRP | 0.861 |
| RRIRARPPRLPRPRPRPMGVPRP | 0.103 |
| RRIRMRPPRLPRPRPRPMMEPRP | 0.00973 |
| RRIRPRPPRLPRPRPRPWYKPRP | 0.215 |
| RRIRTRPPRLPRPRPRPQCAPRP | 0.151 |
| RRIRQRPPRLPRPRPRPFSPPRP | -0.0643 |
| RRIRVRPPRLPRPRPRPFTTPRP | -0.211 |
| RRIRTRPPRLPRPRPRPGEKPRP | -0.0135 |
| RRIRCRPPRLPRPRPRPYINPRP | -0.968 |
| RRIRLRPPRLPRPRPRPKTCPRP | 0.118 |

| Sequence | shrunken log2 fold change |
| --- | --- |
| RRIRFRPPRLPRPRPRPEYSPRP | 5.84e-05 |
| RRIRDRPPRLPRPRPRPLITPRP | 0.189 |
| RRIRERPPRLPRPRPRPYMSPRP | -0.0135 |
| RRIRYRPPRLPRPRPRPQNHPRP | -0.61 |
| RRIRCRPPRLPRPRPRPTNSPRP | -0.336 |
| RRIRARPPRLPRPRPRPLWGPRP | 0.308 |
| RRIRRRPPRLPRPRPRPMSPPRP | -0.185 |
| RRIRRRPPRLPRPRPRPKFTPRP | -0.176 |
| RRIRRRPPRLPRPRPRPTERPRP | 0.409 |
| RRIRDRPPRLPRPRPRPPIEPRP | -0.0618 |
| RRIRGRPPRLPRPRPRPVMWPRP | 0.932 |
| RRIRNRPPRLPRPRPRPESNPRP | 0.0856 |
| RRIRERPPRLPRPRPRPSITPRP | -1.36 |
| RRIRKRPPRLPRPRPRPPLAPRP | 1.06 |
| RRIRGRPPRLPRPRPRPMESPRP | 0.295 |
| RRIRDRPPRLPRPRPRPQSDPRP | -0.0119 |
| RRIRCRPPRLPRPRPRPHCMPRP | -0.517 |
| RRIRARPPRLPRPRPRPWPGPRP | 0.266 |
| RRIRSRPPRLPRPRPRPISLPRP | 1.99 |
| RRIRMRPPRLPRPRPRPADYPRP | 0.0259 |
| RRIRPRPPRLPRPRPRPKIEPRP | 0.0313 |
| RRIRHRPPRLPRPRPRPSSQPRP | -0.152 |
| RRIRMRPPRLPRPRPRPDSQPRP | 1.35 |
| RRIRSRPPRLPRPRPRPHMFPRP | -0.428 |
| RRIRARPPRLPRPRPRPGVDPRP | 0.664 |

| Sequence | shrunken log2 fold change |
| --- | --- |
| RRIRTRPPRLPRPRPRPMTFPRP | 0.0754 |
| RRIRVRPPRLPRPRPRPHTGPRP | -0.495 |
| RRIRIRPPRLPRPRPRPRCYPRP | -0.586 |
| RRIRPRPPRLPRPRPRPYNVPRP | -0.0809 |
| RRIRTRPPRLPRPRPRPQWDPRP | -0.0974 |
| RRIRTRPPRLPRPRPRPFRKPRP | -0.0396 |
| RRIRHRPPRLPRPRPRPGECPRP | -0.377 |
| RRIRRRPPRLPRPRPRPKIAPRP | 0.147 |
| RRIRCRPPRLPRPRPRPFWSPRP | -0.331 |
| RRIRLRPPRLPRPRPRPCFWPRP | 0.14 |
| RRIRLRPPRLPRPRPRPQCVPRP | 0.0615 |
| RRIRWRPPRLPRPRPRPVHGPRP | 0.492 |
| RRIRRRPPRLPRPRPRPEPYPRP | 0.0302 |
| RRIRPRPPRLPRPRPRPPFQPRP | 0.119 |
| RRIRLRPPRLPRPRPRPHWMPRP | -0.0826 |
| RRIRSRPPRLPRPRPRPAGVPRP | 0.0729 |
| RRIRFRPPRLPRPRPRPHCEPRP | -0.0995 |
| RRIRHRPPRLPRPRPRPEMCPRP | -0.206 |
| RRIRTRPPRLPRPRPRPKKNPRP | 0.409 |
| RRIRRRPPRLPRPRPRPWFNPRP | -0.241 |
| RRIRGRPPRLPRPRPRPWEWPRP | 0.911 |
| RRIRYRPPRLPRPRPRPKCRPRP | -0.153 |
| RRIRKRPPRLPRPRPRPDSNPRP | 0.0348 |
| RRIRYRPPRLPRPRPRPQSWPRP | 0.0202 |
| RRIRCRPPRLPRPRPRPSNRPRP | -0.253 |

| Sequence | shrunken log2 fold change |
| --- | --- |
| RRIRHRPPRLPRPRPRPSPCPRP | -0.225 |
| RRIRNRPPRLPRPRPRPHHCPRP | -0.0844 |
| RRIRMRPPRLPRPRPRPFNCPRP | -0.643 |
| RRIRKRPPRLPRPRPRPRNNPRP | 0.198 |
| RRIRVRPPRLPRPRPRPTMMPRP | -0.494 |
| RRIRLRPPRLPRPRPRPYHMPRP | -0.146 |
| RRIRNRPPRLPRPRPRPAWFPRP | 0.294 |
| RRIRVRPPRLPRPRPRPWIHPRP | -0.349 |
| RRIRMRPPRLPRPRPRPFVMPRP | -0.0957 |
| RRIRDRPPRLPRPRPRPQGFPRP | -0.00674 |
| RRIRDRPPRLPRPRPRPLKWPRP | 0.0491 |
| RRIRRRPPRLPRPRPRPMYLPRP | -0.0501 |
| RRIRFRPPRLPRPRPRPYIVPRP | -0.97 |
| RRIRLRPPRLPRPRPRPRKYPRP | -0.882 |
| RRIRNRPPRLPRPRPRPYHHPRP | -0.207 |
| RRIRCRPPRLPRPRPRPAPDPRP | 0.576 |
| RRIRWRPPRLPRPRPRPDVNPRP | -0.125 |
| RRIRIRPPRLPRPRPRPSSMPRP | -0.432 |
| RRIRMRPPRLPRPRPRPRWPPRP | 1.06 |
| RRIRRRPPRLPRPRPRPVNMPRP | -0.156 |
| RRIRTRPPRLPRPRPRPTRNPRP | -0.0423 |
| RRIRFRPPRLPRPRPRPELHPRP | -0.235 |
| RRIRMRPPRLPRPRPRPTRQPRP | 0.886 |
| RRIRHRPPRLPRPRPRPGYDPRP | 0.381 |
| RRIRIRPPRLPRPRPRPDCKPRP | -0.477 |

| Sequence | shrunken log2 fold change |
| --- | --- |
| RRIRIRPPRLPRPRPRPCSSPRP | 0.00235 |
| RRIRVRPPRLPRPRPRPPEEPRP | 0.0908 |
| RRIRYRPPRLPRPRPRPLYMPRP | -0.441 |
| RRIRMRPPRLPRPRPRPGHPPRP | 0.196 |
| RRIRKRPPRLPRPRPRPWIPPRP | 0.0372 |
| RRIRKRPPRLPRPRPRPRYQPRP | -0.0143 |
| RRIRRRPPRLPRPRPRPFTSPRP | -0.0327 |
| RRIRRRPPRLPRPRPRPATNPRP | 0.189 |
| RRIRCRPPRLPRPRPRPHLSPRP | -0.147 |
| RRIRRRPPRLPRPRPRPIRRPRP | -0.0312 |
| RRIRPRPPRLPRPRPRPVECPRP | 0.00863 |
| RRIRDRPPRLPRPRPRPADNPRP | -0.0897 |
| RRIRERPPRLPRPRPRPVEFPRP | -0.309 |
| RRIRKRPPRLPRPRPRPMYKPRP | -0.0655 |
| RRIRDRPPRLPRPRPRPQVAPRP | 0.166 |
| RRIRMRPPRLPRPRPRPQKVPRP | 0.238 |
| RRIRNRPPRLPRPRPRPGAIPRP | 0.0755 |
| RRIRARPPRLPRPRPRPQCCPRP | 0.219 |
| RRIRNRPPRLPRPRPRPWAPPRP | -0.23 |
| RRIRTRPPRLPRPRPRPMQAPRP | -0.0247 |
| RRIRFRPPRLPRPRPRPVMLPRP | -0.412 |
| RRIRDRPPRLPRPRPRPQQAPRP | 0.0257 |
| RRIRVRPPRLPRPRPRPDRWPRP | 0.478 |
| RRIRYRPPRLPRPRPRPNREPRP | 0.00551 |
| RRIRARPPRLPRPRPRPVCLPRP | 0.138 |

| Sequence | shrunken log2 fold change |
| --- | --- |
| RRIRQRPPRLPRPRPRPNPIPRP | 0.0989 |
| RRIRCRPPRLPRPRPRPCQFPRP | -0.0777 |
| RRIRNRPPRLPRPRPRPTGNPRP | -0.104 |
| RRIRWRPPRLPRPRPRPVQCPRP | 0.039 |
| RRIRTRPPRLPRPRPRPHVNPRP | -0.0758 |
| RRIRMRPPRLPRPRPRPIANPRP | 0.333 |
| RRIRDRPPRLPRPRPRPTIFPRP | 0.0643 |
| RRIRERPPRLPRPRPRPRVNPRP | -0.157 |
| RRIRNRPPRLPRPRPRPKWYPRP | -0.517 |
| RRIRSRPPRLPRPRPRPIGPPRP | -0.0999 |
| RRIRARPPRLPRPRPRPHAYPRP | 0.0225 |
| RRIRDRPPRLPRPRPRPTHAPRP | 0.148 |
| RRIRFRPPRLPRPRPRPFNDPRP | 0.00352 |
| RRIRCRPPRLPRPRPRPVRPPRP | 0.504 |
| RRIRMRPPRLPRPRPRPPIEPRP | 0.309 |
| RRIRRRPPRLPRPRPRPFVRPRP | -0.174 |
| RRIRCRPPRLPRPRPRPHHAPRP | 0.0208 |
| RRIRFRPPRLPRPRPRPTAEPRP | 0.593 |
| RRIRERPPRLPRPRPRPWWLPRP | -0.183 |
| RRIRCRPPRLPRPRPRPFQEPRP | -0.101 |
| RRIRMRPPRLPRPRPRPRGQPRP | 1.25 |
| RRIRGRPPRLPRPRPRPFFHPRP | -0.0568 |
| RRIRVRPPRLPRPRPRPPEYPRP | -0.225 |
| RRIRQRPPRLPRPRPRPLKQPRP | -0.151 |
| RRIRSRPPRLPRPRPRPNLFPRP | -0.0477 |
